B1: Hammerhead Ribozyme (parent)
chain: ACCGGAUGUGCUUUCCGGUCUGAUGAGUCCGUGAGGACGAAACAG

Variants of: B1
Test: self-cleavage, relative activity (ratio to wild type); higher = more cleavage; co-transcriptional

Row | Variant | self-cleavage
1 | C15A A40C | 0.361
2 | C15A A40U | 0.394
3 | C15G G35A | 0.468
4 | C15G G35C | 0.456
5 | C15G G35U | 0.455
6 | C15U G18U | 0.643
7 | C15U G18C | 0.491
8 | C15U G18A | 0.554
9 | C16A A34C | 0.799
10 | C16A A34G | 1.17
11 | C16A A34U | 0.719
12 | C15A U21A | 0.415
13 | C15A U21C | 0.373
14 | C15A U21G | 0.404
15 | C15U A37C | 0.714
16 | C15U A37U | 0.953
17 | C15U A37G | 0.789
18 | C15A U28G | 0.378
19 | C15A U28C | 0.425
20 | C15A U28A | 0.413
21 | C16A C29G | 0.566
22 | C16A C29U | 1.06
23 | C16A C29A | 0.417
24 | C16A A42G | 0.296

Row | Variant | self-cleavage
25 | C16A A42U | 0.27
26 | C16A A42C | 0.399
27 | C15U A26G | 0.313
28 | C15U A26C | 0.424
29 | C15U A26U | 0.752
30 | C16A A23C | 0.32
31 | C16A A23U | 0.305
32 | C16A A23G | 0.357
33 | C15U C20U | 0.627
34 | C15U C20G | 0.387
35 | C15U C20A | 0.511
36 | C15G G22A | 0.376
37 | C15G G22U | 0.352
38 | C15G G22C | 0.331
39 | C15U U32G | 0.623
40 | C15U U32A | 1
41 | C15U U32C | 0.93
42 | C16A C20U | 0.567
43 | C16A C20G | 0.316
44 | C16A C20A | 0.474
45 | C15G A42G | 0.276
46 | C15G A42C | 0.277
47 | C15G A42U | 0.328
48 | C15U G31C | 0.967

Row | Variant | self-cleavage
49 | C15U G31U | 0.881
50 | C15U G31A | 0.781
51 | C16A G33A | 1.29
52 | C16A G33U | 1.4
53 | C16A G33C | 1.24
54 | C15G A26U | 0.516
55 | C15G A26G | 0.364
56 | C15G A26C | 0.321
57 | C15A A41U | 0.287
58 | C15A A41G | 0.325
59 | C15A A41C | 0.338
60 | C15U U21A | 0.595
61 | C15U U21C | 0.556
62 | C15U U21G | 0.859
63 | C16A G27C | 0.571
64 | C16A G27U | 0.534
65 | C16A G27A | 0.715
66 | C15A C30U | 1.01
67 | C15A C30G | 0.557
68 | C15A C30A | 0.782
69 | C15U G33U | 1.02
70 | C15U G33A | 0.875
71 | C15U G33C | 0.847
72 | C16A | 1.21

Row | Variant | self-cleavage
73 | C15U G36A | 0.734
74 | C15U G36U | 0.521
75 | C15U G36C | 0.356
76 | C15A U32G | 0.769
77 | C15A U32C | 0.952
78 | C15A U32A | 0.782
79 | C16A G22A | 0.299
80 | C16A G22U | 0.329
81 | C16A G22C | 0.294
82 | C15A U19A | 0.365
83 | C15A U19G | 0.34
84 | C15A U19C | 0.366
85 | C15U G45C | 0.646
86 | C15U G45A | 0.842
87 | C15U G45U | 0.822
88 | C15G G25A | 0.348
89 | C15G G25C | 0.262
90 | C15G G25U | 0.315
91 | C16A G45A | 0.574
92 | C16A G45C | 0.501
93 | C16A G36A | 0.523
94 | C16A G36U | 0.434
95 | C16A G36C | 0.38
96 | C15G U21G | 0.326

Row | Variant | self-cleavage
97 | C15G U21C | 0.275
98 | C15G U21A | 0.424
99 | C15U C30U | 0.735
100 | C15U C30G | 0.641
101 | C15U C30A | 0.696
102 | C16A A41U | 0.37
103 | C16A A41C | 0.404
104 | C16A A41G | 0.352
105 | C15U G35C | 0.601
106 | C15U G35U | 0.701
107 | C15U G35A | 0.756
108 | C15U A44U | 0.664
109 | C15U A44G | 1.21
110 | C15U A44C | 0.596
111 | C15U G25U | 0.314
112 | C15U G25C | 0.314
113 | C15U G25A | 0.366
114 | C16A G35U | 0.563
115 | C16A G35C | 0.573
116 | C16A G35A | 0.727
117 | C15U A41C | 0.368
118 | C15U A41U | 0.352
119 | C15U A41G | 0.355
120 | C15G U32C | 0.804

Row | Variant | self-cleavage
121 | C15G U32A | 0.875
122 | C15G U32G | 0.574
123 | C15G G39U | 0.301
124 | C15G G39C | 0.275
125 | C15G G39A | 0.327
126 | C15G C29U | 0.822
127 | C15G C29G | 0.485
128 | C15G C29A | 0.404
129 | C15G A34C | 0.671
130 | C15G A34U | 0.904
131 | C15G A34G | 0.833
132 | C15A G27A | 0.589
133 | C15A G27U | 0.4
134 | C15A G27C | 0.435
135 | C15G C20U | 0.453
136 | C15G C20A | 0.361
137 | C15G C20G | 0.283
138 | C15G A44G | 0.834
139 | C15G A44U | 0.408
140 | C15G A44C | 0.277
141 | C15G U24G | 0.574
142 | C15G U24A | 0.717
143 | C15G U24C | 0.818
144 | C15G C38A | 0.446

Row | Variant | self-cleavage
145 | C15G C38U | 0.633
146 | C15G C38G | 0.386
147 | C15G G36U | 0.374
148 | C15G G36C | 0.284
149 | C15G G36A | 0.417
150 | C16A C43A | 0.304
151 | C16A C43U | 0.438
152 | C16A C43G | 0.294
153 | C15G C16U | 0.58
154 | C15G C16A | 0.367
155 | C15G C16G | 0.384
156 | C15G C43A | 0.262
157 | C15G C43G | 0.327
158 | C15G C43U | 0.248
159 | C15A G35A | 0.453
160 | C15A G35C | 0.509
161 | C15A G35U | 0.583
162 | C15U A40C | 0.385
163 | C15U A40G | 0.269
164 | C15U A40U | 0.307
165 | C15G A23U | 0.303
166 | C15G A23G | 0.32
167 | C15G A23C | 0.301
